Measured values taken from patent publication US20110266675A1.

Molecular target: microtubules assembled from fluorescein-modified bovine brain tubulin (α/β-tubulin) (bovine)
Experiment: cell-based or functional assay

## Glutathione S-Transferase (GST)-tagged γ-Tubulin fusion protein (from UniProt P23258 1-451)
  average length of MTs after 5 min of polymerization, on γ-tubulin-functionalized gold pads against solution without functionalized microchips: 1.68 micron
  average length of MTs after 10 min of polymerization, on γ-tubulin-functionalized gold pads against solution without functionalized microchips: 3.47 micron
